# Target: recombinant stabilized complete spike protein (SARS-CoV-2), pre-fusion stabilised (SARS-CoV-2) (UniProt P0DTC2)
# Assay: affinity purification with mass spectrometry
substance,measurement,value
human serum albumin (from UniProt P02768 25-609) (natural protein),mean MALDI-ToF peak intensity of eluted HSA,1920 AU
same,percent of samples in which HSA was detected in the eluate,72%

# — doi:10.1101/2021.06.14.21258871
